From paper PMC7887213 (Nature Communications, 2021)
Where a chain is given by its changes, count along the chain named.

B1: Fab397 (Fab, V domains shown)
VH: EVQLVKSGGGLVKPGGSLRLSCAVSGFTFTDAWMSWVRQAPGKGPEWVGRIKSNPDGGTTDYAAPVRGRFTISRDDSKNTLYLQMNNLKTEDTAVYYCITDRDFYRSGGSWGQGTLVTV
VL: DIVMTQSPLSLPVTPGEPASISCRSRQSLLYSNGDNYLDWYLQKPGQSPQLLIYLGSNRAPGVPDRFSGSGSGTDFTLKISRVEAEDVGVYYCMQTLQTPHTFGQGTKLEIK
notes: also called mAb397; source: ExpiCHO cells, purified (HiTrap Protein G, SEC)
B2: Fab311 (Fab, V domains shown)
VH: EVQLVESGGGVVPPGRSLRLSCATSGFTFSNYGMHWVRQAPGKGLEWVAIIWYDGSRNFYAASVEGRFTISRDNSKNTLYLQMNSLRVEDTAVYYCARAAYYDTSGYGDYWGQGTLVTVSS
VL: ESVLTQPPSVSGAPGQTVTISCTGGSSNIGAGYDVHWYQQLPGTAPKLLIYGNINRPSGVPDRFSGSKSGTSASLAITGLQAEDEADYYCQSYDRRLSGSWVFGGGTKLTVL
notes: also called mAb311; source: ExpiCHO cells, purified (HiTrap Protein G, SEC)
B3: Fab364 (Fab, V domains shown)
VH: QVQLVESGGGVVQPGGSLRLSCAASGFTFSGYGMHWVRQVPGKGLEWVAIIWFDGSQKYYADSVQGRFTISRDNSKKTLFLRMNSLRAEDTAVYYCAKVHDDEPTQDYWGQGTLVTVSS
VL: DIQMTQSPSTLSASVGDRVTITCRASQGISTSLAWYQQKPGKAPKLLIYKASSLESGVPSRFSGSGSGTEFTLTITSLQPEDFATYYCQQYKRYWTFGQGTKVEIK
notes: also called mAb364; source: ExpiCHO cells, purified (HiTrap Protein G, SEC)
B4: Fab224 (Fab, V domains shown)
VH: EVQLVESGGGLVQPGRSLRLPCTASGFSFGDHAMSWVRQAPGKGLEWVGFIRKTTYGATTHYAAAVRGRFTISRDDSKSIVYLQMNSLKTEDTAVYFCTRVQLDYGPGYQYYGMDVWGQGTTVTVSS
VL: ESVLTQPPSVSGAPGQRVTISCTGMNSNIGAGYDVYWYQQLPGRAPKLLIYGNSNRPSGVPDRFSGSRSGTSASLAITGLQAEDEADYYCQSYDTSLNGWAFGGGTKLTVL
notes: also called mAb224; source: ExpiCHO cells, purified (HiTrap Protein G, SEC)
B5: Fab356 (Fab, V domains shown)
VH: VQLVESGGGVVQPGRSLRLSCAASGFTFRNFGMHWVRQTPGKGLEWVAVIWHDGSNKFYADSVEGRFTISRDNSKNMIYLQMNSLRVEDTAIYYCARDSLFYDHDNSGYYGYWGQGTLVTVSS
VL: QIVMTQSPATVSVSPGERATLSCRASRSVTSKLAWYQQKPGQAPRLLIYGASTRATGIPARFSGSGSGTEFTLTISSLQSEDFAVYFCQQYNNGFTFGPGTKVDFK
notes: also called mAb356; source: ExpiCHO cells, purified (HiTrap Protein G, SEC)
B6: Fab317 (Fab, V domains shown)
VH: QMQLVESGGGVVQPGRSLRLSCTASGFTFSTYAMHWVRQSPGQGLQWVAVISYHSTNKYYEDSVRGRFTISRDNSKNTLYLQMNSLRAEDTAVYYCARDGYSSSFFDFWGQGTLVTVSS
VL: DIQMTQSPSTLSASVGDRVAITCRASQSISRWLAWYQQQPGKAPKLLMSGASVLESGVPSRFSGSGSGTEFTLTISSLQPDDFATYYCQHYNSYFVTFGQGTKVEIK
notes: also called mAb317; source: ExpiCHO cells, purified (HiTrap Protein G, SEC)
B7: Fab239 (Fab, V domains shown)
VH: QVQLVESGGGVVQPGRSLRLSCAASRLTFRNFGMHWVRQTPGKGLEWVAVIWHDGSNKFYADSVEGRFTISRDNSKNTLYLQMNSLRDEDTAIYYCAKDWGGASDRVFDYWGRGTLVIVSS
VL: DIQMTQSPSTLSASVGDRVTITCRASQSVSTSLAWYQQKPGKAPNLLIYQASTLYRGVPSRFSGSGSGTEFTLTIGSLQPDDFATYYCQHYNSYSRITFGQGTRLEIK
notes: also called mAb239; source: ExpiCHO cells, purified (HiTrap Protein G, SEC)
B8: Fab397 (Fab, V domains shown)
VH: B1 VH
VL: B1 VL
notes: as for B1
B9: Fab311 (Fab, V domains shown)
VH: B2 VH
VL: B2 VL
notes: as for B2
B10: Fab399 (Fab, V domains shown)
VH: EVQLVESGGGLVQPGRSLRLSCTTSGFTFGDYAMSWFRQAPGKGLEWVGFIRSKGFGGTAEYAAFVKGRFTISRDDSRSIAYLQMTSLKPEDTAVYYCSRVGVVIATAVYWGQGTLVTVSS
VL: DILMTQTPLSLSVTPGQPASISCKSSQSLLDNDGKTYLYWYLQKPGQSPQLLIYEVSNRFSGVPERFSGSGSGTDFTLKIRRVEAEDVGVYYCMQRIDLPWTFGQGTKVEIK
notes: also called mAb399; source: ExpiCHO cells, purified (HiTrap Protein G, SEC)
B11: Fab366 (Fab, V domains shown)
VH: QVQLVQSGAEVKKPGASARVSCKASGYTLTDFYLHWVRQAPGQGLEWMGWLNPHSGGTNYAQKFLGRVSMTRDTSISTAYMELNKLISDDTAVYFCVRSDQEALRGAFDIWGQGTMVFVSS
VL: DIQMTQSPSSLSASVGDTVTITCRASQSINDYLNWYQQKPGKAPKLLIYATSSLHSGVPSRFSGSGFGTDFTLTISSLQPEDSATYLCQQSHSLWTFGQGTKVEVK
notes: also called mAb366; source: ExpiCHO cells, purified (HiTrap Protein G, SEC)
B12: Fab364 (Fab, V domains shown)
VH: B3 VH
VL: B3 VL
notes: as for B3
B13: Fab395 (Fab, V domains shown)
VH: QEQLVESGGGVVQPGRSLRLSCAAASEFCFSCYGMHWVRQAPGKGLEWVAVIWHDGSNQHFADSVKGRFTISRDNSKNIMYLQMNSLRAEDTAVYYCASATRYDILTGAFDYWGQGTLVTVSS
VL: B3 VL with G28S, S32W, T76S, E81D, K92S
notes: also called mAb395; source: ExpiCHO cells, purified (HiTrap Protein G, SEC)
B14: Fab224 (Fab, V domains shown)
VH: B4 VH
VL: B4 VL
notes: as for B4
B15: Fab356 (Fab, V domains shown)
VH: B5 VH
VL: B5 VL
notes: as for B5
B16: Fab317 (Fab, V domains shown)
VH: B6 VH
VL: B6 VL
notes: as for B6
B17: Fab239 (Fab, V domains shown)
VH: B7 VH
VL: B7 VL
notes: as for B7

Target: T1, NPNA2 peptide (Ac-[residues removed]-NH2) (Plasmodium falciparum (synthetic CSP …)
T1 construct: source: synthetic peptide, bought: Innopep Inc
Test: ITC; peptide in the syringe, Fab (~10 uM) in the cell; DPBS; 25 C; single-site binding model; triplicate; apparent affinity
Conditions: both partners purified

Row | Binder | Kd [nM]
1 | B1 | 2740
2 | B2 | 152
3 | B3 | 47
4 | B4 | 14200
5 | B5 | 8270
6 | B6 | 132
7 | B7 | 641

Target: T2, NPNA4 peptide (Ac-[residues removed]-NH2) (Plasmodium falciparum (synthetic CSP …)
T2 construct: source: synthetic peptide, bought: Innopep Inc
Test: as above
Conditions: both partners purified

Row | Binder | Kd [nM]
8 | B1 | 255
9 | B3 | 28
10 | B4 | 126
11 | B5 | 82
12 | B6 | 70
13 | B7 | 20

Target: T3, NPNA6 peptide (Ac-[residues removed]-NH2) (Plasmodium falciparum (synthetic CSP …)
T3 construct: source: synthetic peptide, bought: Innopep Inc
Test: as above
Conditions: both partners purified

Row | Binder | Kd [nM]
14 | B1 | 92
15 | B2 | 19
16 | B3 | 27
17 | B4 | 141
18 | B5 | 30
19 | B6 | 111
20 | B7 | 10

Target: T4, Ac-[residues removed]-NH2 (NPNA2 peptide) (Plasmodium falciparum (synthetic CSP …))
T4 construct: also called 8-mer peptide; source: synthetic peptide; bought: Innopep Inc
Test: ITC; peptide in the syringe, Fab (~10 uM) in the cell; DPBS, 25 °C; single-site binding model; triplicate, mean ± SD; No. of sites = peptide per Fab
Conditions: both partners purified

Row | Binder | stoichiometry N
21 | B8 | 1.18
22 | B9 | 1.27
23 | B10 | 3.23
24 | B11 | 1.21
25 | B12 | 1.41
26 | B13 | 1.35
27 | B14 | 1.59
28 | B15 | 1.29
29 | B16 | 1.36
30 | B17 | 1.34

Target: T5, Ac-[residues removed]-NH2 (NPNA4 peptide) (Plasmodium falciparum (synthetic CSP …))
T5 construct: also called 16-mer peptide; source: synthetic peptide; bought: Innopep Inc
Test: as above
Conditions: both partners purified

Row | Binder | stoichiometry N
31 | B8 | 1.3
32 | B9 | 0.578
33 | B10 | 1.74
34 | B11 | 1.21
35 | B12 | 0.634
36 | B13 | 0.608
37 | B14 | 1.26
38 | B15 | 0.542
39 | B16 | 0.95
40 | B17 | 0.572

Target: T6, Ac-[residues removed]-NH2 (NPNA6 peptide) (Plasmodium falciparum (synthetic CSP …))
T6 construct: also called 24-mer peptide; source: synthetic peptide; bought: Innopep Inc
Test: as above
Conditions: both partners purified

Row | Binder | stoichiometry N
41 | B8 | 0.73
42 | B9 | 0.386
43 | B10 | 0.737
44 | B11 | 0.67
45 | B12 | 0.445
46 | B13 | 0.432
47 | B14 | 0.749
48 | B15 | 0.354
49 | B16 | 0.723
50 | B17 | 0.348
